According to doi:10.1101/749432:

Target: endothelial protein C receptor (EPCR), residues 16 to 210, biotinylated on the BAP tag (human) (UniProt Q9UNN8)
Assay: SPR

endothelial protein C receptor (EPCR), residues 16 to 210, biotinylated on the BAP tag (human), sequence (Q9UNN8 16-210): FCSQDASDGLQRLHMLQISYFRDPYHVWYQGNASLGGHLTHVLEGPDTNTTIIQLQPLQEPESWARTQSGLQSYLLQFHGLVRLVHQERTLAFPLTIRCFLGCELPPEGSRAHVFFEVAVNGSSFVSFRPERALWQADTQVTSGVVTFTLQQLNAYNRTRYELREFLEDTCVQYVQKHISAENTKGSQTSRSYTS

For “HB3var03 CIDRα1.4 domain D576A K642A double mutant (domain or fragment)”, the Kd was 220 nM.
